Test results published in US20120058906A1.

Experiments:
[1] = molecular target: rHuman Notch-1/Fc Chimera, CF (R&D Systems Cat#3647-TK) (human) (UniProt P46531); assay: ECL (MSD multi-spot) screen, antigen spotted on plate, Fab at 0.34 uM; blank spot 356
[2] = molecular target: rHuman P-Cadherin/Fc Chimera, CF (R&D Systems Cat#861-PC) (human) (UniProt P22223); assay: as above
[3] = molecular target: rHuman IGF-1 sR, CF (R&D Systems Cat#391-GR) (human) (UniProt P08069); assay: as above
[4] = molecular target: rHuman ErbB2/Fc Chimera, CF (R&D Systems Cat#1129-ER) (human) (UniProt P04626); assay: as above
[5] = molecular target: rHuman Erythropoietin R/Fc Chimera, CF (R&D Systems Cat#963-ER) (human) (UniProt P19235); assay: as above
[6] = molecular target: rHuman HGF R/c-MET/Fc Chimera, CF (R&D Systems Cat#358-MT/CF) (human) (UniProt P08581); assay: as above
[7] = molecular target: rHuman CD44/Fc Chimera, CF (R&D Systems Cat#3660-CD) (human) (UniProt P16070); assay: ECL (MSD multi-spot), Fab 340 nM; blank 554
[8] = molecular target: rHuman Notch-1/Fc Chimera, CF (R&D Systems Cat#3647-TK) (human) (UniProt P46531); assay: ECL (MSD multi-spot), Fab 340 nM; blank 554
[9] = molecular target: rHuman P-Cadherin/Fc Chimera, CF (R&D Systems Cat#861-PC) (human) (UniProt P22223); assay: ECL (MSD multi-spot), Fab 340 nM; blank 554
[10] = molecular target: rHuman ErbB2/Fc Chimera, CF (R&D Systems Cat#1129-ER) (human) (UniProt P04626); assay: ECL (MSD multi-spot), Fab 340 nM; blank 554
[11] = molecular target: rHuman Erythropoietin R/Fc Chimera, CF (R&D Systems Cat#963-ER) (human) (UniProt P19235); assay: ECL (MSD multi-spot), Fab 340 nM; blank 554
[12] = molecular target: rHuman IGF-1 sR (IGF-1 sR), CF (R&D Systems Cat#391-GR) (human) (UniProt P08069); assay: ECL (MSD multi-spot), Fab 340 nM; blank 554
[13] = molecular target: rHuman EGF R/Fc Chimera, CF (R&D Systems Cat#344-ER) (human) (UniProt P00533); assay: ECL (MSD multi-spot), Fab 340 nM; blank 554
[14] = molecular target: rHuman HGF R/c-MET/Fc Chimera, CF (R&D Systems Cat#358-MT/CF) (human) (UniProt P08581); assay: ECL (MSD multi-spot), Fab 340 nM; blank 554
[15] = molecular target: rHuman CD44/Fc Chimera, CF (R&D Systems Cat#3660-CD) (human) (UniProt P16070); assay: ECL (MSD multi-spot), Fab 170 nM; blank 262
[16] = molecular target: rHuman Notch-1/Fc Chimera, CF (R&D Systems Cat#3647-TK) (human) (UniProt P46531); assay: ECL (MSD multi-spot), Fab 170 nM; blank 262
[17] = molecular target: rHuman P-Cadherin/Fc Chimera, CF (R&D Systems Cat#861-PC) (human) (UniProt P22223); assay: ECL (MSD multi-spot), Fab 170 nM; blank 262
[18] = molecular target: rHuman ErbB2/Fc Chimera, CF (R&D Systems Cat#1129-ER) (human) (UniProt P04626); assay: ECL (MSD multi-spot), Fab 170 nM; blank 262
[19] = molecular target: rHuman Erythropoietin R/Fc Chimera, CF (R&D Systems Cat#963-ER) (human) (UniProt P19235); assay: ECL (MSD multi-spot), Fab 170 nM; blank 262
[20] = molecular target: rHuman IGF-1 sR (IGF-1 sR), CF (R&D Systems Cat#391-GR) (human) (UniProt P08069); assay: ECL (MSD multi-spot), Fab 170 nM; blank 262
[21] = molecular target: rHuman EGF R/Fc Chimera, CF (R&D Systems Cat#344-ER) (human) (UniProt P00533); assay: ECL (MSD multi-spot), Fab 170 nM; blank 262
[22] = molecular target: rHuman HGF R/c-MET/Fc Chimera, CF (R&D Systems Cat#358-MT/CF) (human) (UniProt P08581); assay: ECL (MSD multi-spot), Fab 170 nM; blank 262
[23] = molecular target: rHuman CD44/Fc Chimera, CF (R&D Systems Cat#3660-CD) (human) (UniProt P16070); assay: ECL (MSD multi-spot), Fab 85.0 nM; blank 292
[24] = molecular target: rHuman ErbB2/Fc Chimera, CF (R&D Systems Cat#1129-ER) (human) (UniProt P04626); assay: ECL (MSD multi-spot), Fab 85.0 nM; blank 292
[25] = molecular target: rHuman Erythropoietin R/Fc Chimera, CF (R&D Systems Cat#963-ER) (human) (UniProt P19235); assay: ECL (MSD multi-spot), Fab 85.0 nM; blank 292
[26] = molecular target: rHuman IGF-1 sR (IGF-1 sR), CF (R&D Systems Cat#391-GR) (human) (UniProt P08069); assay: ECL (MSD multi-spot), Fab 85.0 nM; blank 292
[27] = molecular target: rHuman EGF R/Fc Chimera, CF (R&D Systems Cat#344-ER) (human) (UniProt P00533); assay: ECL (MSD multi-spot), Fab 85.0 nM; blank 292
[28] = molecular target: rHuman HGF R/c-MET/Fc Chimera, CF (R&D Systems Cat#358-MT/CF) (human) (UniProt P08581); assay: ECL (MSD multi-spot), Fab 85.0 nM; blank 292

Chain of rHuman Erythropoietin R/Fc Chimera, CF (R&D Systems Cat#963-ER) (human) (P19235 25-250, change not shown): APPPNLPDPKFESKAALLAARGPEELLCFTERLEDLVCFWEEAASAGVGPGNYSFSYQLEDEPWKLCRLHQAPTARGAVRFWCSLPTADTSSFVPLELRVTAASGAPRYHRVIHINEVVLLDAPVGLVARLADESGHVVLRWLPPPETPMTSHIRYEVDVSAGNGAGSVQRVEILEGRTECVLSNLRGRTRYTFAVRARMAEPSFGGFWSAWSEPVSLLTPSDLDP

ECL signal [1]: 912
ECL signal [2]: 935
ECL signal [3]: 871
ECL signal [4]: 900
ECL signal [5]: 907
ECL signal [6]: 914
ECL signal [7]: 959 ECL signal
ECL signal [8]: 1210 ECL signal
ECL signal [9]: 1160 ECL signal
ECL signal [10]: 1230 ECL signal
ECL signal [11]: 1260 ECL signal
ECL signal [12]: 1040 ECL signal
ECL signal [13]: 1210 ECL signal
ECL signal [14]: 1240 ECL signal
ECL signal [15]: 660 ECL signal
ECL signal [16]: 816 ECL signal
ECL signal [17]: 744 ECL signal
ECL signal [18]: 964 ECL signal
ECL signal [19]: 790 ECL signal
ECL signal [20]: 832 ECL signal
ECL signal [21]: 826 ECL signal
ECL signal [22]: 757 ECL signal
ECL signal [23]: 693 ECL signal
ECL signal [24]: 844 ECL signal
ECL signal [25]: 817 ECL signal
ECL signal [26]: 891 ECL signal
ECL signal [27]: 1000 ECL signal
ECL signal [28]: 998 ECL signal
Substance: Fab VH4-34_IGHD7-27*01_IGHJ4*01 & V4-6_IGLJ4*01
